In paper PMC10397247:
Where two headings read alike, the source gives them in different places.

Columns and labels:
4H2505-AA = target: T1, 4H2505-AA; experiment: two-hybrid library CCmax;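 note: natural log of median RNA to DNA barcode read ratio; higher means stronger binding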
T1 chain: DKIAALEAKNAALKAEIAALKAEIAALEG

4H605-AA = target: T2, 4H605-AA; experiment: two-hybrid library CCmax; conditions: mean of both orientations;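 note: natural log of median RNA to DNA barcode read ratio; higher means stronger binding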
T2 chain: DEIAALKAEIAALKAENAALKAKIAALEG

4H717-AA = target: T3, 4H717-AA; experiment: two-hybrid library CCmax; conditions: mean of both orientations;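 note: natural log of median RNA to DNA barcode read ratio; higher means stronger binding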
T3 chain: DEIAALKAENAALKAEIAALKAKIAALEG

4H3844-AA = target: T4, 4H3844-AA; experiment: two-hybrid library CCmax; conditions: mean of both orientations;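 note: natural log of median RNA to DNA barcode read ratio; higher means stronger binding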
T4 chain: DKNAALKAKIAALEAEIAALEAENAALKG

4H2944-AA = target: T5, 4H2944-AA; experiment: two-hybrid library CCmax; conditions: mean of both orientations;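 note: natural log of median RNA to DNA barcode read ratio; higher means stronger binding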
T5 chain: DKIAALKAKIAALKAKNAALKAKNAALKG

4H3606-AA = target: T6, 4H3606-AA; experiment: two-hybrid library CCmax; conditions: mean of both orientations;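 note: natural log of median RNA to DNA barcode read ratio; higher means stronger binding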
T6 chain: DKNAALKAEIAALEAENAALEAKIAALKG

4H678-AA = target: T7, 4H678-AA; experiment: two-hybrid library CCmax; conditions: mean of both orientations
T7 chain: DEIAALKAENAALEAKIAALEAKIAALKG

4H906-AA = target: T8, 4H906-AA; experiment: two-hybrid library CCmax; conditions: mean of both orientations
T8 chain: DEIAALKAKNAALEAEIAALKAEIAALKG

4H2729-AA = target: T9, 4H2729-AA; experiment: two-hybrid library CCmax; conditions: mean of both orientations
T9 chain: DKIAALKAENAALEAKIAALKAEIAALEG

4H3655-AA = target: T10, 4H3655-AA; experiment: two-hybrid library CCmax; conditions: mean of both orientations
T10 chain: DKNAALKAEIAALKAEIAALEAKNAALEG

4H317-AA = target: T11, 4H317-AA; experiment: two-hybrid library CCmax; conditions: mean of both orientations
T11 chain: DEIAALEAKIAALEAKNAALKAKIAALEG

4H2575-AA = target: T12, 4H2575-AA; experiment: two-hybrid library CCmax; conditions: mean of both orientations
T12 chain: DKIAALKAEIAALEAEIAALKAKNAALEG

4H3427-AA = target: T13, 4H3427-AA; experiment: two-hybrid library CCmax; conditions: mean of both orientations
T13 chain: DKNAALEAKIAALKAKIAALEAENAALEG

4H2883-AA = target: T14, 4H2883-AA; experiment: two-hybrid library CCmax; conditions: mean of both orientations
T14 chain: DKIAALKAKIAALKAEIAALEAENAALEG

4H780-AA = target: T15, 4H780-AA; experiment: two-hybrid library CCmax; conditions: mean of both orientations
T15 chain: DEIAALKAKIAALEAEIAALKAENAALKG

4H3112-AA = target: T16, 4H3112-AA; experiment: two-hybrid library CCmax; conditions: mean of both orientations
T16 chain: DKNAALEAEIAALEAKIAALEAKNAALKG

4H335-AA = target: T17, 4H335-AA; experiment: two-hybrid library CCmax; conditions: mean of both orientations
T17 chain: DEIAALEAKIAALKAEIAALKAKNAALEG

4H794-AA = target: T18, 4H794-AA; experiment: two-hybrid library CCmax; conditions: mean of both orientations
T18 chain: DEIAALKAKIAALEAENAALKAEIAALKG

4H429-AA = target: T19, 4H429-AA; experiment: two-hybrid library CCmax
T19 chain: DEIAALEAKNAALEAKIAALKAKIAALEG

4H2754-AA = target: T20, 4H2754-AA; experiment: two-hybrid library CCmax; conditions: mean of both orientations
T20 chain: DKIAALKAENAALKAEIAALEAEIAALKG

4H2466-AA = target: T21, 4H2466-AA; experiment: two-hybrid library CCmax; conditions: mean of both orientations
T21 chain: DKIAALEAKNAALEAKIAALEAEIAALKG

4H566-AA = target: T22, 4H566-AA; experiment: two-hybrid library CCmax; conditions: mean of both orientations
T22 chain: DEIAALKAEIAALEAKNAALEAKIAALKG

4H3921-AA = target: T23, 4H3921-AA; experiment: two-hybrid library CCmax; conditions: mean of both orientations
T23 chain: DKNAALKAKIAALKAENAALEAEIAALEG

4H3343-AA = target: T24, 4H3343-AA; experiment: two-hybrid library CCmax; conditions: mean of both orientations
T24 chain: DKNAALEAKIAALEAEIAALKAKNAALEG

4H454-AA = target: T25, 4H454-AA; experiment: two-hybrid library CCmax; conditions: mean of both orientations
T25 chain: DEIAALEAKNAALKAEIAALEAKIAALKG

4H993-AA = target: T26, 4H993-AA; experiment: two-hybrid library CCmax; conditions: mean of both orientations
T26 chain: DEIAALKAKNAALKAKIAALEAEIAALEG

4H881-AA = target: T27, 4H881-AA; experiment: two-hybrid library CCmax; conditions: mean of both orientations
T27 chain: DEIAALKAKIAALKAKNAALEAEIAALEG

4H48-AA = target: T28, 4H48-AA; experiment: two-hybrid library CCmax; conditions: mean of both orientations
T28 chain: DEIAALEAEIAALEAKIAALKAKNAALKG

4H2949-AA = target: T29, 4H2949-AA; experiment: two-hybrid library CCmax; conditions: mean of both orientations
T29 chain: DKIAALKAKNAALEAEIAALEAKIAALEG

4H2837-AA = target: T30, 4H2837-AA; experiment: two-hybrid library CCmax; conditions: mean of both orientations
T30 chain: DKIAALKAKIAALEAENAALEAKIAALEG

4H342-AA = target: T31, 4H342-AA; experiment: two-hybrid library CCmax; conditions: mean of both orientations
T31 chain: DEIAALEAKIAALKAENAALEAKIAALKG

4H2617-AA = target: T32, 4H2617-AA; experiment: two-hybrid library CCmax; conditions: mean of both orientations
T32 chain: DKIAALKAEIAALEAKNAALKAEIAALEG

4H2642-AA = target: T33, 4H2642-AA; experiment: two-hybrid library CCmax; conditions: mean of both orientations
T33 chain: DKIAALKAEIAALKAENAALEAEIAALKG

4H3627-AA = target: T34, 4H3627-AA; experiment: two-hybrid library CCmax
T34 chain: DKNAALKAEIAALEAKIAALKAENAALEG

4H741-bH = target: T35, 4H741-bH; experiment: two-hybrid library CCNG1
T35 chain: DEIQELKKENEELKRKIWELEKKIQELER

4H492-bH = target: T36, 4H492-bH; experiment: two-hybrid library CCNG1
T36 chain: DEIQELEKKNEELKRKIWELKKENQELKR

4H40-bH = target: T37, 4H40-bH; experiment: two-hybrid library CCNG1
T37 chain: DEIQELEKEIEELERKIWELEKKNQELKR

4H477-bH = target: T38, 4H477-bH; experiment: two-hybrid library CCNG1
T38 chain: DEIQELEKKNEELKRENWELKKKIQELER

4H796-bH = target: T39, 4H796-bH; experiment: two-hybrid library CCNG1
T39 chain: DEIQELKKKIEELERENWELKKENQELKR

4H932-bH = target: T40, 4H932-bH; experiment: two-hybrid library CCNG1
T40 chain: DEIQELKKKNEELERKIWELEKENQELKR

4H730-bH = target: T41, 4H730-bH; experiment: two-hybrid library CCNG1
T41 chain: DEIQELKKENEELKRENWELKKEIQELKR

4H949-bH = target: T42, 4H949-bH; experiment: two-hybrid library CCNG1
T42 chain: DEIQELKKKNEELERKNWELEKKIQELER

4H56-bH = target: T43, 4H56-bH; experiment: two-hybrid library CCNG1
T43 chain: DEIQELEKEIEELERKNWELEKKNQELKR

Binder | interaction score (4H605-AA) | interaction score (4H717-AA) | interaction score (4H3844-AA) | interaction score (4H2944-AA) | interaction score (4H3606-AA) | interaction score (4H678-AA) | interaction score (4H906-AA) | interaction score (4H2729-AA) | interaction score (4H3655-AA) | interaction score (4H317-AA) | interaction score (4H2575-AA) | interaction score (4H3427-AA) | interaction score (4H2883-AA) | interaction score (4H780-AA) | interaction score (4H3112-AA) | interaction score (4H335-AA) | interaction score (4H794-AA) | interaction score (4H2754-AA) | interaction score (4H566-AA) | interaction score (4H3921-AA) | also measured
DKIAALEAKIAALKAENAALKAEIAALEG [4H2393-AA] | 0.852 | -1.55 | 1.55 | -0.902 | 2.32 | -0.574 | -1.04 | -0.695 | -1.41 | 1.92 | -1.03 | -1.45 | -1.21 | -1.42 | -1.21 | -1.56 | 1.33 | -1.23 | 1.33 | -1.77 | interaction score (4H2505-AA; mean of both orientations): -1.59; interaction score (4H429-AA; mean of both orientations): -1.55; interaction score (4H2466-AA): 0.221; interaction score (4H3343-AA): -1.29; interaction score (4H454-AA): -0.951; interaction score (4H993-AA): -1.5; interaction score (4H881-AA): -1; interaction score (4H48-AA): -0.193; interaction score (4H2949-AA): 1.51; interaction score (4H2837-AA): 1.73; interaction score (4H342-AA): 2.37; interaction score (4H2617-AA): 1.93; interaction score (4H2642-AA): 1.82; interaction score (4H3627-AA; mean of both orientations): -1.42
DKIAALEAKNAALKAEIAALKAEIAALEG [4H2505-AA] | -1.14 | -0.029 | -1.01 | -1.9 | 1.04 | 1.78 | 0.636 | 2.02 | -1.61 | -1.65 | -0.277 | -1.04 | -0.918 | -1.6 | -1.11 | -1.01 | -0.881 | 1.69 | -0.341 | -0.328 | interaction score (4H2505-AA): 1.09; interaction score (4H429-AA): 1.6; interaction score (4H3343-AA): -1.59; interaction score (4H454-AA): 2.21; interaction score (4H993-AA): -1.53; interaction score (4H881-AA): -1.43; interaction score (4H48-AA): 0.908; interaction score (4H2949-AA): 1.68; interaction score (4H2837-AA): 1.03; interaction score (4H342-AA): 1.06; interaction score (4H2617-AA): -0.92; interaction score (4H2642-AA): -0.234; interaction score (4H3627-AA): -1.54
DEIQELEKEIEELERKIWELEKKNQELKR [4H40-bH] |  |  |  |  |  |  |  |  |  |  |  |  |  |  |  |  |  |  |  |  | interaction score (4H741-bH): 0.646; interaction score (4H492-bH): 0.0489; interaction score (4H40-bH): -0.0343; interaction score (4H477-bH): -0.00296
DEIQELEKEIEELERKNWELEKKNQELKR [4H56-bH] |  |  |  |  |  |  |  |  |  |  |  |  |  |  |  |  |  |  |  |  | interaction score (4H796-bH): 0.682; interaction score (4H932-bH): -0.0294; interaction score (4H730-bH): -0.307; interaction score (4H949-bH): -1.15; interaction score (4H56-bH): -0.661
